Test results published in IntAct's records for PubMed 29892012.

B1: TBC1 domain family member 22B (Homo sapiens), Q9NU19 (parent)
chain: MAAENSKQFWKRSAKLPGSIQPVYGAQHPPLDPRLTKNFIKERSKVNTVPLKNKKASSFHEFARNTSDAWDIGDDEEEDFSSPSFQTLNSKVALATAAQVLENHSKLRVKPERSQSTTSDVPANYKVIKSSSDAQLSRNSSDTCLRNPLHKQQSLPLRPIIPLVARISDQNASGAPPMTVREKTRLEKFRQLLSSQNTDLDELRKCSWPGVPREVRPITWRLLSGYLPANTERRKLTLQRKREEYFGFIEQYYDSRNEEHHQDTYRQIHIDIPRTNPLIPLFQQPLVQEIFERILFIWAIRHPASGYVQGINDLVTPFFVVFLSEYVEEDVENFDVTNLSQDMLRSIEADSFWCMSKLLDGIQDNYTFAQPGIQKKVKALEELVSRIDEQVHNHFRRYEVEYLQFAFRWMNNLLMRELPLRCTIRLWDTYQSEPEGFSHFHLYVCAAFLIKWRKEILDEEDFQGLLMLLQNLPTIHWGNEEIGLLLAEAYRLKYMFADAPNHYRR
partner: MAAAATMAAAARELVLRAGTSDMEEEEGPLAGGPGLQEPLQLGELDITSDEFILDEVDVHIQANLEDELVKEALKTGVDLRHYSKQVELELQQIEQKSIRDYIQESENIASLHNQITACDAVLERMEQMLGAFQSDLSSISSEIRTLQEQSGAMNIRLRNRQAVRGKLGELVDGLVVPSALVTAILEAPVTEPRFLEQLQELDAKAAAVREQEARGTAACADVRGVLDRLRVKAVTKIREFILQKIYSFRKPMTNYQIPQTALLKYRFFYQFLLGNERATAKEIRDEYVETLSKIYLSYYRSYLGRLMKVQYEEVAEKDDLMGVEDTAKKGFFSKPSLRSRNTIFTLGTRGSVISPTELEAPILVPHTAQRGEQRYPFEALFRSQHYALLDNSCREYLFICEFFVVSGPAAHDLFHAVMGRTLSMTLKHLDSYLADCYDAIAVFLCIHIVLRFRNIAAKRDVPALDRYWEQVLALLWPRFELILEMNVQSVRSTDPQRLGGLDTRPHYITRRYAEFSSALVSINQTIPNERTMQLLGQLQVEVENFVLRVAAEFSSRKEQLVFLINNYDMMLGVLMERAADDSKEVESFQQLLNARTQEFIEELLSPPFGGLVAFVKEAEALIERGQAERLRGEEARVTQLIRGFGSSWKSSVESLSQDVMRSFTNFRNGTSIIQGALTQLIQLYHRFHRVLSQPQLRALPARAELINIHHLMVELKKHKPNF
B2: Exportin-6 (Homo sapiens), Q96QU8 (parent)
chain: MASEEASLRALESLMTEFFHDCTTNERKREIEELLNNFAQQIGAWRFCLYFLSSTRNDYVMMYSLTVFENLINKMWLGVPSQDKMEIRSCLPKLLLAHHKTLPYFIRNKLCKVIVDIGRQDWPMFYHDFFTNILQLIQSPVTTPLGLIMLKTTSEELACPREDLSVARKEELRKLLLDQVQTVLGLLTGILETVWDKHSVTAATPPPSPTSGESGDLLSNLLQSPSSAKLLNQPIPILDVESEYICSLALECLAHLFSWIPLSASITPSLLTTIFHFARFGCDIRARKMASVNGSSQNCVSGQERGRLGVLAMSCINELMSKNCVPMEFEEYLLRMFQQTFYLLQKITKDNNAHTVKSRLEELDESYIEKFTDFLRLFVSVHLRRIESYSQFPVVEFLTLLFKYTFHQPTHEGYFSCLDIWTLFLDYLTSKIKSRLGDKEAVLNRYEDALVLLLTEVLNRIQFRYNQAQLEELDDETLDDDQQTEWQRYLRQSLEVVAKVMELLPTHAFSTLFPVLQDNLEVYLGLQQFIVTSGSGHRLNITAENDCRRLHCSLRDLSSLLQAVGRLAEYFIGDVFAARFNDALTVVERLVKVTLYGSQIKLYNIETAVPSVLKPDLIDVHAQSLAALQAYSHWLAQYCSEVHRQNTQQFVTLISTTMDAITPLISTKVQDKLLLSACHLLVSLATTVRPVFLISIPAVQKVFNRITDASALRLVDKAQVLVCRALSNILLLPWPNLPENEQQWPVRSINHASLISALSRDYRNLKPSAVAPQRKMPLDDTKLIIHQTLSVLEDIVENISGESTKSRQICYQSLQESVQVSLALFPAFIHQSDVTDEMLSFFLTLFRGLRVQMGVPFTEQIIQTFLNMFTREQLAESILHEGSTGCRVVEKFLKILQVVVQEPGQVFKPFLPSIIALCMEQVYPIIAERPSPDVKAELFELLFRTLHHNWRYFFKSTVLASVQRGIAEEQMENEPQFSAIMQAFGQSFLQPDIHLFKQNLFYLETLNTKQKLYHKKIFRTAMLFQFVNVLLQVLVHKSHDLLQEEIGIAIYNMASVDFDGFFAAFLPEFLTSCDGVDANQKSVLGRNFKMDRDLPSFTQNVHRLVNDLRYYRLCNDSLPPGTVKL
B3: Coiled-coil domain-containing protein 120 (Homo sapiens), Q96HB5-4 (parent)
chain: MRREPRYQGQVGPDIHTDSERTLSSHQPRPLDSTKMEVKGQLISSPTFNAPAALFGEAAPQVKSERLRGLLDRQRTLQEALSLKLQELRKVCLQEAELTGQLPPECPLEPGERPQLVRRRPPTARAYPPPHPNQAHHSLCPAEELALEALEREVSVQQQIAAAARRLALAPDLSTEQRRRRRQVQADALRRLHELEEQLRDVRARLGLPVLPLPQPLPLSTGSVITTQGVCLGMRLAQLSQEDVVLHSESSSLSESGASHDNEEPHGCFSLAERPSPPKAWDQLRAVSGGSPERRTPWKPPPSDLYGDLKSRRNSVASPTSPTRSLPRSASSFEGRSVPATPVLTRGAGPQLCKPEGLHSRQWSGSQDSQMGFPRADPASDRASLFVARTRRSNSSEALLVDRAAGGGAGSPPAPLAPSASGPPVCKSSEVLYERPQPTPAFSSRTAGPPDPPRAARPSSAAPASRGAPRLPPVCGDFLLDYSLDRGLPRSGGGTGWGELPPAAEVPGPLSRRDGLLTMLPGPPPVYAADSNSPLLRTKDPHTRATRTKPCGLPPEAAEGPEVHPNPLLWMPPPTRIPSAGERSGHKNLALEGLRDWYIRNSGLAAGPQRRPVLPSVGPPHPPFLHARCYEVGQALYGAPSQAPLPHSRSFTAPPVSGRYYADFLYPPELSARLSDLTLEGEQSSSSDTQTPGTLV

Variants of: B1
Details: with vps52_human VPS52, Q8N1B4

Variant | effect of a mutation on the interaction
A349T | disrupting interaction strength

Variants of: B2
Details: with nup62_human NUP62, P37198
nup62_human NUP62, P37198, sequence (P37198 whole entry): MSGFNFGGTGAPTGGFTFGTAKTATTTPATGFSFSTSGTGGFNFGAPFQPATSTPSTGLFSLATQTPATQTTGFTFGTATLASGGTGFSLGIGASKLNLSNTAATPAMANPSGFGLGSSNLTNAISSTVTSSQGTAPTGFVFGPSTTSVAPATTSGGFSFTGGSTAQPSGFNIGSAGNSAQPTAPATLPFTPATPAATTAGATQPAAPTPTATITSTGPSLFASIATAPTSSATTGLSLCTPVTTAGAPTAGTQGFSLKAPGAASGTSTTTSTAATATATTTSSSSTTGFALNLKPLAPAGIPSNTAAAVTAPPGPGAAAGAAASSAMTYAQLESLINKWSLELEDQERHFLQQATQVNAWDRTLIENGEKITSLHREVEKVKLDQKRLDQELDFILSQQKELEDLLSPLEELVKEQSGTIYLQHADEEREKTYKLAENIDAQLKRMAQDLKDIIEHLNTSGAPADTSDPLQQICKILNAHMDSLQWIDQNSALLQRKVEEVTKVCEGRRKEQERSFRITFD

Variant | effect of a mutation on the interaction
L512V | with no effect

Variants of: B3
Details: with cyh2_human CYTH2, Q99418
cyh2_human CYTH2, Q99418, sequence (Q99418 whole entry): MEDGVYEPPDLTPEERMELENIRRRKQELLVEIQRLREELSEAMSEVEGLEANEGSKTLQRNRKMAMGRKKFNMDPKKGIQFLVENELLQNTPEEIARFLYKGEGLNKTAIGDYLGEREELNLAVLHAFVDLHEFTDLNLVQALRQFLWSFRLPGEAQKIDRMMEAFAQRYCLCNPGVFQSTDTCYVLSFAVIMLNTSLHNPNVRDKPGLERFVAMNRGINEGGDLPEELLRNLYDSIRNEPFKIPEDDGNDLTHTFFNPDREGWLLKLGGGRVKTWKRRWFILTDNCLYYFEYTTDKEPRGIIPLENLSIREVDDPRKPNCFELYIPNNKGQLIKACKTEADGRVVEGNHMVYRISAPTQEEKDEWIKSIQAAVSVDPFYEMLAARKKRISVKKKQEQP

Variant | effect of a mutation on the interaction
R346W | with no effect

Variants of: B3
Details: with mdfi_human MDFI

Variant | effect of a mutation on the interaction
R346W | with no effect

Variants of: B3
Details: with k1h1_human KRT31, Q15323
k1h1_human KRT31, Q15323, sequence (Q15323 whole entry): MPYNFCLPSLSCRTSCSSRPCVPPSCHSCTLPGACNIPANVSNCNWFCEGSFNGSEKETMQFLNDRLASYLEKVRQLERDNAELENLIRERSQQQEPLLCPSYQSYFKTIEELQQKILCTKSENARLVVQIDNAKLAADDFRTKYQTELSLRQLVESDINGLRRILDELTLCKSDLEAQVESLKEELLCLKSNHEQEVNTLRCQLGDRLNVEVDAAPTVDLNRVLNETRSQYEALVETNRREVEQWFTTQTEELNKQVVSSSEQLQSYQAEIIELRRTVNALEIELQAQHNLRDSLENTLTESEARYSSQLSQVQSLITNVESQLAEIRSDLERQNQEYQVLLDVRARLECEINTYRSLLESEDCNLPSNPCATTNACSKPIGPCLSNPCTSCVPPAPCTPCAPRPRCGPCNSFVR

Variant | effect of a mutation on the interaction
R346W | with no effect

Variants of: B3
Details: with KRT15, P19012
KRT15, P19012, sequence (P19012 whole entry): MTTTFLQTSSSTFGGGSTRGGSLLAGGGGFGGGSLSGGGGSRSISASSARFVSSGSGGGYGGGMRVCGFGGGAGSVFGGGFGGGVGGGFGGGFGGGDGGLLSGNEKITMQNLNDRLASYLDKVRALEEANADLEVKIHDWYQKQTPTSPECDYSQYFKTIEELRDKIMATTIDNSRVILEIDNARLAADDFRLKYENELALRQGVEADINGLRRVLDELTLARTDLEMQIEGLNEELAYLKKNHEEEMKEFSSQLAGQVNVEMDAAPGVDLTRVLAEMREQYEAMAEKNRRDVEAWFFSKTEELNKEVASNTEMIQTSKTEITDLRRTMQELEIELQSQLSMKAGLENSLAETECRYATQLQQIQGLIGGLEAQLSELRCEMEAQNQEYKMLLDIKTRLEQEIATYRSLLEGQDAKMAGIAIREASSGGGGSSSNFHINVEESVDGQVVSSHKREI

Variant | effect of a mutation on the interaction
R346W | with no effect
